{"source": "the nanobody polyreactivity screen of Harvey et al. (2022)"}
{"experiment": "yeast display, Sf9 membrane polyspecificity reagent, FACS + sequencing; frameworks hold sequencing errors", "in_short": "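Sorting gates, low and high (top ~1%), were placed on anti-HA fluorescence to track expression and on streptavidin fluorescence to track reagent binding. A clone's polyreactivity label is taken from the gate it came out of. The reagent was 10% biotinylated, detergent-solubilized Sf9 membrane, applied for 1 hour at 4 °C to galactose-induced yeast display cells.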"}
{"sequence": "QVQLVESGGGLVQAGGSLRLSCAASGFTFYYYAMGWYRQAPGKERELVATISRSGGSTYYADSVKGRFTISRDNAKNTVYLQMNSLKPEDTAVYYCAARSYKSPRDYDYWGQGTQVTVSS", "polyreactivity (PSR sort gate)": "high polyreactivity"}
{"sequence": "QVQLVESGGGLVQAGGSLRLSCAASGFTFYYYAMGWYRQAPGTERELVASITSTDSTTYADSVKGRFTISRDNAKNTVYLQMNSLKPEDTAVYYFNRLYYHWYGGLDYWGHGTQVTVSS", "polyreactivity (PSR sort gate)": "high polyreactivity"}
{"sequence": "QVQLVESGGGLVQAGGSLRLSCAASGFTFYYYPMGWYRQAPGKERELVAAITWRGGSTNYADSVKGRFTISRDNAKNTVYLLMISLKPEDTAVYYCAAVTYWFWPGMDYWGQGTQVTVSS", "polyreactivity (PSR sort gate)": "low polyreactivity"}
{"sequence": "QVQLVESGGGLVQAGGSLRLSCAASGFTFYYYTMGWYRQAPGKERELVAGISGTGGSTYYADSVKGRFTISRDNAKNTVYLQMNSLKPEDTAVYYCAAGPWYWGQGTQVTVSS", "polyreactivity (PSR sort gate)": "low polyreactivity"}
{"sequence": "QVQLVESGGGLVQAGGSLRLSCAASGFTFYYYTMGWYRQAPGKERELVAVITGGGGSTYYADSVKGRFTISRDNAKNTVYLQMNSLKPEDTAVYYCAAKFYGWYRQRGYDYWGQGTQVTVSS", "polyreactivity (PSR sort gate)": "high polyreactivity"}
{"sequence": "QVQLVESGGGLVQAGGSLRLSCAASGFTFYYYVMGWSRQAPGKERELVAAITRSGGSTYYADSVKGRFTISRDNAKNTVYLQMNSLKPEDTAVYYCNAYVPPKAASAAYDYWGQGTQVTVSS", "polyreactivity (PSR sort gate)": "high polyreactivity"}
{"sequence": "QVQLVESGGGLVQAGGSLRLSCAASGFTIGSNAMGWYRPAPGKEWELVAAISYTCSTYYAESVKGRFTISRDNAKNTVYLQKNSLKPEDTAVYYGNAESDTPSYDDWGQGTQVTVSS", "polyreactivity (PSR sort gate)": "low polyreactivity"}
{"sequence": "QVQLVESGGGLVQAGGSLRLSCAASGFTIHNYAMGWYRQAPGKERELVARITRSGGTTYYADSVKGRFTISRDNAKNTVYLQMNSLKPEDTAVYYCAARRYGYTSITWYDYWGQGTQVTVSS", "polyreactivity (PSR sort gate)": "high polyreactivity"}
{"sequence": "QVQLVESGGGLVQAGGSLRLSCAASGFTILRYAMGWYRQAPGKERDLVAAISTSGGSTSYADSVKGRFTISRDNAKNTVYVQMYSLKPEDSAVYYCKAVLYKAYWQLYDYWGQGSQVTVSS", "polyreactivity (PSR sort gate)": "high polyreactivity"}
{"sequence": "QVQLVESGGGLVQAGGSLRLSCAASGFTIRNYAMGLYRQAPGKERELFAAIRGRGGSTYYADSVKGRFTISRDNAKNTDYLQMNSLKPEDTAVYYCARVGYASYEHDYWGQGTQVNVSS", "polyreactivity (PSR sort gate)": "high polyreactivity"}
{"sequence": "QVQLVESGGGLVQAGGSLRLSCAASGFTISDNAMGWYRQAPGKERELVAAITSGTSTYYADSVKGRFTISRDNAKNTVYLQMNSLKPEDTAVYYCAARTYYSGYLWARGYWGQGTQVTVSS", "polyreactivity (PSR sort gate)": "high polyreactivity"}
{"sequence": "QVQLVESGGGLVQAGGSLRLSCAASGFTISFYAMGWYRQAPGKERELVAAITWNGGNTYYADSVKGRFTISRDNAKNTVYLQMNSLKPEDTAVYYCNKDSYYYHFDYWGQGTQVTVSS", "polyreactivity (PSR sort gate)": "high polyreactivity"}
{"sequence": "QVQLVESGGGLVQAGGSLRLSCAASGFTITYNAMGWYRKAPGKEREFVAAITNNGSTYYADSVKGRFTISRDNAKNTVYLQMNSLKPEDTAVYYCAVDPGYYDEYKYWGQGTQVTVSS", "polyreactivity (PSR sort gate)": "low polyreactivity"}
{"sequence": "QVQLVESGGGLVQAGGSLRLSCAASGFTIVWYAMGWYRQATGKERELVAAISSGVSTYYADSVKGRFTISRDNAKNTVYLQMNSLKPEDTAVYYCAADREYYDEYAGYEYWGQGTQVTVSS", "polyreactivity (PSR sort gate)": "low polyreactivity"}
{"sequence": "QVQLVESGGGLVQAGGSLRLSCAASGFTIWRYAMGWYRQAPWKARELVAAISRGGSTNYADSVKGRFTISRDNAKNTVYLQMNSLKPEDTAVYYCAASVQYRRLKKFYYWGQGTQVTVSS", "polyreactivity (PSR sort gate)": "high polyreactivity"}
{"sequence": "QVQLVESGGGLVQAGGSLRLSCAASGFTIYANAMGWYRQAPGKERELVAAISSNGGSTYYADSVKGRFTISRDNAKNTVYLQMKSLKPEDTAVYSCADYFGSVLRSTIYDYWGQGTQVTVSS", "polyreactivity (PSR sort gate)": "low polyreactivity"}
{"sequence": "QVQLVESGGGLVQAGGSLRLSCAASGFTIYGYAMGWYSQAPGKERELVAAISSSGGRTYYADSVKGRCTISRDNAKNTVYLQMNSLKPEDTAVYYCAAEYRSYRDGYWGQGTQVTVSS", "polyreactivity (PSR sort gate)": "high polyreactivity"}
{"sequence": "QVQLVESGGGLVQAGGSLRLSCAASGFTIYRYAMGWSRQAPGKERELVAAISGGGSRTYYADSVKGRFTISRDNAKNTVYLLMNSLKPEDTAVYYCNADPVKYSYDGYARPRYDYWGQGTQVTVSS", "polyreactivity (PSR sort gate)": "low polyreactivity"}
{"sequence": "QVQLVESGGGLVQAGGSLRLSCAASGFTIYRYAMGWYRQAPGKERELVAAITWSGVSTYYADSVKGRFTISRDNAKNTVYLQMNSLKPEDTAVYYCAATTYSSSSSHDYWGQGTQVTVSS", "polyreactivity (PSR sort gate)": "low polyreactivity"}
{"sequence": "QVQLVESGGGLVQAGGSLRLSCAASGFTIYRYAMGWYRQAPGKERELVASITWSGGSTYYADSVKGRFTISRDNAKNTVYLQMNSLKPEDTAVYYCNALFSWGTGYGSSYGYWGQGTQVTVSS", "polyreactivity (PSR sort gate)": "high polyreactivity"}
{"sequence": "QVQLVESGGGLVQAGGSLRLSCAASGFTIYYYAMGWYRQAPGKERELVASITSGGSTYYADSVKGRFTISRDNAKNTVYLQMHSLKPEDTAVYDCAKTRLHSKEGDYWGQGTQVTVSS", "polyreactivity (PSR sort gate)": "low polyreactivity"}
{"sequence": "QVQLVESGGGLVQAGGSLRLSCAASGFTIYYYAMGWYRQAPGKERELVASITSGGSTYYADSVKGRFTISRDNAKNTVYLQMNSLKPEDTAVYYCAKTRFHSKEGDYWGQGTQVTVSS", "polyreactivity (PSR sort gate)": "low polyreactivity"}
{"sequence": "QVQLVESGGGLVQAGGSLRLSCAASGFTLAGYDMGWYRQAPGKERELVATISTYADSVKGRFTISRDNAKNTVYLQMNSLKPEDTAVYDCAKKYVWTHNYWGQGTQVTVSS", "polyreactivity (PSR sort gate)": "low polyreactivity"}
{"sequence": "QVQLVESGGGLVQAGGSLRLSCAASGFTLARNTMGWYRQAPGKQRELVAAISGGGSTNYADSVKGRFTISRDNAKNTVYLLMYSLKPEHTAVYYCNADSNSDNNDYDYWGQGSQVTVSS", "polyreactivity (PSR sort gate)": "low polyreactivity"}
{"sequence": "QVQLVESGGGLVQAGGSLRLSCAASGFTLDNYAIGWYRPAPGKERELVAASSWSGGRTYYADSVKGRFTISRDNAKNTVYLQMNSLKPEDTAVYYCYASPYGRKYGILADGDYWGQGTQVTVSS", "polyreactivity (PSR sort gate)": "high polyreactivity"}
{"sequence": "QVQLVESGGGLVQAGGSLRLSCAASGFTLDYYAMGLYRQAPGKERELVAAITSGSITYYADSVKGRFTISRDNAKNTVYLQMNSLKPEDTAVYYCAAVGLVRYGYWGQGTQVTVSS", "polyreactivity (PSR sort gate)": "high polyreactivity"}
{"sequence": "QVQLVESGGGLVQAGGSLRLSCAASGFTLFDYAMGWYRQAPGKERELVAAITTSGGSTYYADSVKGRFTISRDNAKNTVYLQMNSLKPEDTAVYYCAVEYMLTYYYYVSYEYYYWGQGTQVTVSS", "polyreactivity (PSR sort gate)": "high polyreactivity"}
{"sequence": "QVQLVESGGGLVQAGGSLRLSCAASGFTLFTYAMGWYRQAPGKERELVAAIRSGGSTYYADSVKGRFTISRDTAKNTVYLQMNSLKPEDTAVYYCNAVYRYASGKYYYWGQGTQVTVSS", "polyreactivity (PSR sort gate)": "high polyreactivity"}
{"sequence": "QVQLVESGGGLVQAGGSLRLSCAASGFTLGFNAMGWYRQAPGKERELVATISSSGGSTHYADSVKGRFTISRDNAKNTVYLQMNSLKPEDTAVYYCARDDSDRIWLEQSGYWGQGTQVTVSS", "polyreactivity (PSR sort gate)": "low polyreactivity"}
{"sequence": "QVQLVESGGGLVQAGGSLRLSCAASGFTLGFYAMGWYIQAPGKERELVAAINWRGGSTYYADSVKGRFTISRDNAKNTVYLQMNSLKPEDTAVYYCNAGFNTGGYGYWGQGTQVTVSS", "polyreactivity (PSR sort gate)": "high polyreactivity"}
{"sequence": "QVQLVESGGGLVQAGGSLRLSCAASGFTLGHYAMGWYRQAPGKERELVAVITSGSSTNYADSVKGRFTISRDNAKNTVYLQMNSLKPDDTAVYYCAAEDPYFKWLYYYWGQGTQVTVSS", "polyreactivity (PSR sort gate)": "low polyreactivity"}
{"sequence": "QVQLVESGGGLVQAGGSLRLSCAASGFTLGSNVMGWYRQAPGKERELVAGISQSGGRTFYADSVKGRFTISRDNAKNTVYLQMNSLKPEDTAVYYCAARRYAVEGSKNYYWGQGTQVTVSS", "polyreactivity (PSR sort gate)": "low polyreactivity"}
{"sequence": "QVQLVESGGGLVQAGGSLRLSCAASGFTLGSNVMGWYRQAPGKERELVAGISQSGGRTFYADSVKGRFTISRDNAKNTVYLQMNSLKPEDTAVYYCNKGASPDDYDYWGQGTQVTVSS", "polyreactivity (PSR sort gate)": "low polyreactivity"}
{"sequence": "QVQLVESGGGLVQAGGSLRLSCAASGFTLGYYTMGWYRQAPGKERELVAAIRSNGGSTYYADSVKGRFTISRDNAKNTVYLQMNSLKPEDTAVYYCAARRWRYVGTRYDYWGQGTQVTVSS", "polyreactivity (PSR sort gate)": "high polyreactivity"}
{"sequence": "QVQLVESGGGLVQAGGSLRLSCAASGFTLIHYAMGWYRQAPGKERELVAGITTSGGSTYYADSVKGRFTISRDNAKNTVYLQMNSLKPEDTAVYYCAASSNTRGDYWGQGTQVTVSS", "polyreactivity (PSR sort gate)": "high polyreactivity"}
{"sequence": "QVQLVESGGGLVQAGGSLRLSCAASGFTLISYDMGWYRPSPGKERELVAGISSGDSTDYADSVKGRFTISRDNAKNTVYLQMNSLKPEDTAVYYCAATWYGYYSRYDFYYWGQGTQVTVSS", "polyreactivity (PSR sort gate)": "low polyreactivity"}
{"sequence": "QVQLVESGGGLVQAGGSLRLSCAASGFTLKSYAMGWYRQAPGKERELVASISRRGGSTYYADSVKGRFTISRDNAKNTVYLQMNSLKPEDTAVYYCNADYVRFPGNAYDYWGQGTQVTVSS", "polyreactivity (PSR sort gate)": "high polyreactivity"}
{"sequence": "QVQLVESGGGLVQAGGSLRLSCAASGFTLKYYAMGWYRQAPGKERELVAAITSSGGSTYYADSVKGRFTISRDNAKNTVYLQMNSLKPEDTAVYYCNAVTVYKHGSWGQGTQVTVSS", "polyreactivity (PSR sort gate)": "high polyreactivity"}
{"sequence": "QVQLVESGGGLVQAGGSLRLSCAASGFTLLKNAMRGYRQAPGKERELVAAIRVSGGSTYYADSVKGRFTISRDNAKNSVYLQMNSLKPEDTAVYYCAAKYLRWPVSTMYYWGQGTQVTVSS", "polyreactivity (PSR sort gate)": "high polyreactivity"}
{"sequence": "QVQLVESGGGLVQAGGSLRLSCAASGFTLQQYTMGWYRQAPGKERELVAAISTSGVRTYYADSVKGRFTISRDNAKNTVYLQMNSLKPEDTAVYYCNAAWVYGIGWYSGYDYWGQGTQVTVSS", "polyreactivity (PSR sort gate)": "high polyreactivity"}
{"sequence": "QVQLVESGGGLVQAGGSLRLSCAASGFTLRLYVMGWYRQAPGKERELVAAITSSGGSTYYADSVKGRFTISRDIAKNTVYLQMNSLKPEDTAVYYCAAVNRKSQLYGYWGQGTQVTVSS", "polyreactivity (PSR sort gate)": "high polyreactivity"}
{"sequence": "QVQLVESGGGLVQAGGSLRLSCAASGFTLRRYAMGWYRLAPGKERELVATITSGGTTDYADSVKGRFTISRDNAKNTVYLQMNSLKPEDTAVYYCAAYRRGAYYYWGQGTQVTVSS", "polyreactivity (PSR sort gate)": "high polyreactivity"}
{"sequence": "QVQLVESGGGLVQAGGSLRLSCAASGFTLSKYAKGWYRPAPGKERELVAAITGSGVRTYYADSVKGRFTISRDYAKNSVYLELNSLKPEDTAVYYCATGTKKGRYRDELDCWGHGTQVTVSS", "polyreactivity (PSR sort gate)": "high polyreactivity"}
